Experimental data published in article PMC12394075, “Domain coupling in activation of a family C GPCR” (Nature Chemical Biology, 2024).

Target: the molecule itself
Assay: SEC; Superdex 200 10/300 increase; 100 mM NaCl, 20 mM HEPES, pH 7.5

B1: isolated mGluR2 LBD (residues 22–502 with a Cys234Ser mutation) (domain or fragment, UniProt P31421 22-502, looked up)
chain: AKKVLTLEGDLVLGGLFPVHQKGGPAEECGPVNEHRGIQRLEAMLFALDRINRDPHLLPGVRLGAHILDSCSKDTHALEQALDFVRASLSRGADGSRHICPDGSYATHSDAPTAVTGVIGGSYSDVSIQVANLLRLFQIPQISYASTSAKLSDKSRYDYFARTVPPDFFQAKAMAEILRFFNWTYVSTVASEGDYGETGIEAFELEARARNISVATSEKVGRAMSRAAFEGVVRALLQKPSARVAVLFTRSEDARELLAATQRLNASFTWVASDGWGALESVVAGSERAAEGAITIELASYPISDFASYFQSLDPWNNSRNPWFREFWEERFHCSFRQRDCAAHSLRAVPFEQESKIMFVVNAVYAMAHALHNMHRALCPNTTHLCDAMRPVNGRRLYKDFVLNVKFDAPFRPADTDDEVRFDRFGDGIGRYNIFTYLRAGSGRYRYQKVGYWAEGLTLDTSFIPWASPSAGPLPASRCSE
notes: Rat is surmised because the same peptides are compared with the full-length rat construct; the simulations used human mGluR2; also called LBD-alone construct; LBD-only construct; source: Expi293 GNTI- cells, secreted into media, purified (anti-FLAG M2 resin, SEC)
stoichiometry N: 2
